Patent US20030008808

Test system: 30S ribosomal subunit (activated, mRNA-programmed; ribonucleoprotein)
Assay: filter
Settings: CMN buffer

Question: native E. coli tRNALys(SUU) was tested. Which Kd (native modifications incl. mnm5s2U34, poly(A)-programmed, 20 mM MgCl2, 100 mM NH4Cl, pH 7.2, 37 C then ice) did it give?
Answer: 70 nM

Question: native yeast tRNAPhe(GmAA) was tested. Which Kd (native modifications incl. Gm34, poly(U)-programmed, 20 mM MgCl2) did it give?
Answer: 103 nM

Question: How did the Kd (poly(U)-programmed, 20 mM MgCl2) turn out when yeast ASLPhe(GAA) was run?
Answer: 136 nM

Question: human ASLLys3(SUU) was tested. Which Kd (s2U at position 34, poly(A)-programmed, also bound poly(AG)-programmed, 20 mM MgCl2) did it give?
Answer: 176 nM
